Laboratory results published in US20240084044A1, “Heteromultivalent Nucleic Acid Scaffolds and Uses Thereof” (George Mason University, priority 2022, published 2024).
Where “and” joins values, the source holds several entries; their conditions need not be identical. Equal entries are not always repeated. Bridges are numbered along the chain shown (N, C = ends). Roman numbers before positions name the chains, in order.

Molecular target: T1, ST2/IL-33 binary complex (Homo sapiens, UniProt O95760+Q01638)
T1 construct: included the extracellular domains, K19-F328 and S21-E359, respectively; the cleaved mature proteins, S112-T270, A117-S269, and R2-S310, respectively; purchased Sino Biologicals ST2 10105-HCCH; IL-33 10368-HNAE; host or cells: ST2: HEK293; IL-33: E. coli
T1 sequence (Q01638 19-328 isoform Q01638-2): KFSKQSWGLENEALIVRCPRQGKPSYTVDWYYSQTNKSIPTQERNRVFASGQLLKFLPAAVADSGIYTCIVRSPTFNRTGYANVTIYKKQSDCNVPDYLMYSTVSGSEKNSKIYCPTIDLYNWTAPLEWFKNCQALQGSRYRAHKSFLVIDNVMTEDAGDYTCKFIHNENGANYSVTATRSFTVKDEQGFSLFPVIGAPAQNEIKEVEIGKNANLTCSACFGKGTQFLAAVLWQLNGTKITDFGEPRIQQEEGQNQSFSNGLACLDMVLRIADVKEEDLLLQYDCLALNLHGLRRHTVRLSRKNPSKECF
T1 sequence (O95760 112-270): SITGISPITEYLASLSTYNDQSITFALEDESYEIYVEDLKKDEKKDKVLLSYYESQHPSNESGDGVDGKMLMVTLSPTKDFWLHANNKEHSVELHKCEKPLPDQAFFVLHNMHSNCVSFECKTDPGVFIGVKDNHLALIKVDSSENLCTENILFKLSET
Assay: SPR dissociation constant for the ST2/IL-33 binary complex
Format: binding
Source text: Recombinant ST2 with truncated FLAG (DDDDK) tag (Cat. #10105-HCCH), His-tagged IL1RAcP (Cat. #10121-H08H), IL-33 (Cat. #10368-HNAE), IL-1β (Cat. #10139-HNAE), and FLAG-tagged SIRT5 (Cat. #19202-H22E) were purchased from Sino Biologicals (Wayne, PA). ST2 and IL1RAcP were expressed in HEK293 cells and included the extracellular domains, K19-F328 and S21-E359, respectively. IL-33, IL-1β, and SIRT5 were expressed in E. coli and included the residue sequence of the cleaved mature proteins, S112-T270, A117-S269, and R2-S310, respectively. Lyophilized ST2, and IL1RAcP were reconstituted in ultrapure (18.5 MΩ) water to a concentration of 0.5 mg/mL (5.6 μM) and stored at −80° C. until use. SIRT5 was reconstituted to 0.2 mg/mL (2.87 μM). To prevent oxidation, IL-33 was reconstituted in 10 mM β-mercaptoethanol (Sigma-Aldrich) to a concentration of 0.1 mg/mL and IL-1β was reconstituted to 0.250 mg/mL. All peptides were purchased from Peptide 2.0 (Chantilly, VA) and designed based on IL1RAcP hotspot residues known to interact with IL-33/ST2 and surrounding residues based on the canonical sequence of IL1RAcP (Uniprot #Q9NPH3). All peptides were modified with acetylated N-terms and amidated C-terms to optimize stability and cyclic peptides cyclized via thioether or disulfide bond. Candidate peptides for the final molecule were also modified with an azido-Lysine and additional N-term alanine or cysteine, to provide the azide group for copper free click chemistry and maintain cyclization. Peptides were stored at −20° C. in lyophilized aliquots of 100 μg or 200 μg and −80° C. after reconstitution in sterile DMSO to a concentration of 10 mM.
SPR experiments were carried out on an OpenSPR instrument (Nicoya). Gold nanoparticle sensor chips (Nicoya) were functionalized by incubation in a solution of ethanol and 10 mM 11-Mercaptoundecanoic acid (MUDA) at RT for a minimum of 48 h, then stored in ethanol at 4° C. until use. Chips were activated with a solution of 200 mM EDC and 50 mM NHS for 3 m at RT. […] Data was analyzed with TraceDrawer software to a 1:1 fit model.

increase in affinity compared to the individual peptides and IL-1RAcP (SPR KD comparison): ~100 fold and 100 fold
Kd (SPR, 1:1 fit, read-out: KD (affinity) to the binary ST2/IL-33 complex): 195 nM and < 200 nM
Substance: MSTOP: 3WJ DNA scaffold whose three DBCO staple strands carry cyclized azidolysine IL-1RAcP hotspot peptides; decoy for IL-33/ST2 (peptide 1 Ac-CKEYGIQRITC-NH2; peptide 2 Ac-AKVGSPKNAVPPC-NH2; peptide 3 Ac-CKGEVAKAAKVKC-NH2; disulfide I:1-I:11, III:1-III:13; thioether II:1-II:13; not fully specified (some residues); also: three peptides held on a 3-way junction DNA scaffold via DBCO staple strands)
